The results in this text go back to US20220127366A1 (DREN BIO, published 2022).

Where two headings read alike, the source gives them in different places.

By EC50 is commonly meant the concentration needed to bring the measured effect to its halfway point.

Experiment [1] concerns the target human Dectin-1 isoform A (human) (UniProt Q9BXN2). The experiment is described as follows: flow cytometry, HEK293F hDectin-1a FL cells. (In general: In flow cytometry, cells or beads pass a laser one at a time.)
The target of experiment [2] is human Dectin-1 isoform B (human) (UniProt Q9BXN2). The experiment is described as follows: flow cytometry, HEK-Blue hDectin-1b cells.
The target in experiment [3] is human Dectin-1 isoform A (human) (UniProt Q9BXN2). Briefly: flow cytometry, HEK-Blue hDectin-1a cells.
Experiment [4] addresses cynomolgus monkey Dectin-1 (cynomolgus monkey). The experiment is described as follows: flow cytometry, cynomolgus monkey monocytes.
In experiment [5] the target is T1, human Dectin-1 (isoform not given) (human, UniProt Q9BXN2 1-247).
T1 chain: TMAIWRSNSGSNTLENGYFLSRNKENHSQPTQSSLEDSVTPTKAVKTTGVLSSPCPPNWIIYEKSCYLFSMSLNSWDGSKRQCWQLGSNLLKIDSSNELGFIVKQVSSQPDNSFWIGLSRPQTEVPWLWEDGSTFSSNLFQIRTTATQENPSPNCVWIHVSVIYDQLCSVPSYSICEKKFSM
The experiment is described as follows: flow cytometry, human monocytes.

Experiment [6] concerns the target cynomolgus monkey Dectin-1 (cynomolgus monkey). Briefly: flow cytometry, cynomolgus monkey monocytes. The source holds these as a separate data set.
The target in experiment [7] is T2, human CD20 (human, UniProt P11836 1-297).
T2 construct: whole, on cells; also called hCD20
T2 sequence (looked up): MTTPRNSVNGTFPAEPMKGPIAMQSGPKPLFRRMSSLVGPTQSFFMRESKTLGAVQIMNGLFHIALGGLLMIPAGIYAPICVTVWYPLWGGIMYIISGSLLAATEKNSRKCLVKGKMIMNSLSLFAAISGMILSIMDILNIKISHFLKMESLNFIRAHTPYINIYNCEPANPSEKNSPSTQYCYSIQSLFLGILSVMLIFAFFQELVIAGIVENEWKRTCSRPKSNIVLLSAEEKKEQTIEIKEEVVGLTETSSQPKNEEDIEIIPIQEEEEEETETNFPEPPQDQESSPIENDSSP
Briefly: flow cytometry, Raji cells.

Experiment [8] has as its target T1, human Dectin-1 (isoform not given). Briefly: flow cytometry, HEK 293 cells stably overexpressing human Dectin-1.
Experiment [9] has the same target. Briefly: cell-based or functional assay.

In the case of “anti-Dectin-1 antibody 259931 (commercial)”, the EC50 in [1] is 1.2 nM; in [2], 0.9 nM; in [3], 0.8 nM; in experiment [4] it was 16 nM; in experiment [5], 0.3 nM; in experiment [6], 16.5 nM.
On to anti-Dectin-1 antibody GE2 (commercial), for which the 50% effective concentration (EC50) in experiment [1] is 2.4 nM; in experiment [2], 12 nM; in experiment [3], 1.9 nM; in [5] it was 1.4 nM.

B1: 2M24/RSV hIgG1 (fucosylated or afucosylated) (bispecific antibody, V domains shown)
VH 1: QVQLVQSGAEVKKPGASVKVSCKSSGYTFTDYYIHWVRQAPGQGLEWMGWINPNSGDTNYAQKFQGRITMTRDTSISTAYLELSRLRSDDTAVFYCARNSGSYSFGYWGQGTLVTVSS
VL 1: DIQMTQSPSSVSASVGDRVTITCRASQGISSWLAWYQQKPGKAPKLLIFGASSLQSGVPSRFSGSGSGTDFTLTVSSLQPEDFATYYCQQAYSFPFTFGPGTKVDIE
VH 2: QVTLRESGPALVKPTQTLTLTCTFSGFSLSTSGMSVGWIRQPPGKALEWLADIWWDDKKDYNPSLKSRLTISKDTSANQVVLKVTNMDPADTATYYCARSMITNWYFDVWGAGTTVTVSS
VL 2: DIQMTQSPSTLSASVGDRVTITCKCQLSVGYMHWYQQKPGKAPKLLIYDTSKLASGVPSRFSGSGSGTAFTLTISSLQPDDFATYYCFQGSGYPFTFGGGTKLEIK
In the case of B1, the binding result in experiment [7] was “no binding (tested: between 10 and 100 nM (about 60 nM))”.

B2: Fab 2M24-mSA fusion protein (Fab, V domains shown)
VH: QVQLVQSGAEVKKPGASVKVSCKSSGYTFTDYYIHWVRQAPGQGLEWMGWINPNSGDTNYAQKFQGRITMTRDTSISTAYLELSRLRSDDTAVFYCARNSGSYSFGYWGQGTLVTVSS
VL: DIQMTQSPSSVSASVGDRVTITCRASQGISSWLAWYQQKPGKAPKLLIFGASSLQSGVPSRFSGSGSGTDFTLTVSSLQPEDFATYYCQQAYSFPFTFGPGTKVDIE
notes: only the 2M24 VL is tied; also called Fab 2M24 fusion to monomeric streptavidin
Molecule B2 returned an EC50 in experiment [8] of 1.45 nM.

B3: 2M24/RSV hIgG1 inert (bispecific antibody, V domains shown)
VH 1: QVQLVQSGAEVKKPGASVKVSCKSSGYTFTDYYIHWVRQAPGQGLEWMGWINPNSGDTNYAQKFQGRITMTRDTSISTAYLELSRLRSDDTAVFYCARNSGSYSFGYWGQGTLVTVSS
VL 1: DIQMTQSPSSVSASVGDRVTITCRASQGISSWLAWYQQKPGKAPKLLIFGASSLQSGVPSRFSGSGSGTDFTLTVSSLQPEDFATYYCQQAYSFPFTFGPGTKVDIE
VH 2: QVTLRESGPALVKPTQTLTLTCTFSGFSLSTSGMSVGWIRQPPGKALEWLADIWWDDKKDYNPSLKSRLTISKDTSANQVVLKVTNMDPADTATYYCARSMITNWYFDVWGAGTTVTVSS
VL 2: DIQMTQSPSTLSASVGDRVTITCKCQLSVGYMHWYQQKPGKAPKLLIYDTSKLASGVPSRFSGSGSGTAFTLTISSLQPDDFATYYCFQGSGYPFTFGGGTKLEIK
notes: also called 2M24/RSV with inert human IgG1 Fc
In the case of B3, the binding result in [7] is “no binding (tested: between 10 and 100 nM (about 60 nM))”.

B4: anti-Dectin-1 antibody 15E2 (commercial) (antibody, V domains shown)
VH: QWQLQQSGAELARPGASWKMSCKASGYTFTTYTMHWWKQRPGQGLEWIGYINPSSGYTNYNQKFKDKATLTADKSSSTASMQLSSLTSEDSAWYYCARERAVLVPYAMDYWGQGTSVTVSS
VL: QIVLTQSPAVMSASPGEKWTITCTASSSLSYMHWFQQKPGTSPKLWLYSTSILASGVPTRFSGSGSGTSYSLTISRMEAEDAATYYCQQRSSSPFTFGSGTKLEIK
As to B4, in [9], the “IFNg secretion in PBMC (fold change to isotype), immobilized antibody” value is 1.6 fold change to isotype; the “IL6 secretion in PBMC (fold change to isotype), immobilized antibody” value was 2.6 fold change to isotype; the “TNFa secretion in PBMC (fold change to isotype), immobilized antibody” value is 3 fold change to isotype.
